The text below walks through data of patent US20140044644A1 (UNIVERSITY OF ZURICH, published 2014).

Test [1] has as its target T1, Aβ40 (synthetic, fibrillar) (UniProt P05067 672-711).
T1 construct: domain: Aβ40; also called fibrillar Aβ40; Aβ40 peptide
In words: ELISA, Aβ40 coated, rat recombinant ankG in solution. (An ELISA detects its analyte on a solid surface through an enzyme-linked reagent.)

In test [2] the target is T2, Aβ42 (synthetic, fibrillar) (UniProt P05067 672-713).
T2 construct: domain: Aβ42; also called fibrillar Aβ42; Aβ42 peptide
Kind of test: ELISA, Aβ42 coated, rat recombinant ankG in solution.

T2 sequence (P05067 672-713 limits assumed): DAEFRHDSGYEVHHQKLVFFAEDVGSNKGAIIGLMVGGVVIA
T1 sequence (P05067 672-711 limits assumed): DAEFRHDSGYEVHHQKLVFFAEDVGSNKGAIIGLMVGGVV

B1: rat recombinant ankG (ankyrin G) (other, UniProt O70511-3 1-1806, looked up)
chain: MSEEAKEKTAKPAHRKRKGKKSDANASYLRAARAGHLEKALDYIKNGVDVNICNQNGLNALHLASKEGHVEVVSELLQREANVDAATKKGNTALHIASLAGQAEVVKVLVTNGANVNAQSQNGFTPLYMAAQENHLEVVRFLLDNGASQSLATEDGFTPLAVALQQGHDQVVSLLLENDTKGKVRLPALHIAARKDDTKAAALLLQNDTNADIESKSGFTPLHIAAHYGNINVATLLLNRAAAVDFTARNDITPLHVASKRGNANMVKLLLDRGAKIDAKTRDGLTPLHCGARSGHEQVVEMLLDRAAPILSKTKNGLSPLHMATQGDHLNCVQLLLQHNVPVDDVTNDYLTALHVAAHCGHYKVAKVLLDKKANPNAKALNGFTPLHIACKKNRIRVMELLLKHGASIQAVTESGLTPIHVAAFMGHVNIVSQLMHHGASPNTTNVRGETALHMAARSGQAEVVRYLVQDGAQVEAKAKDDQTPLHISARLGKADIVQQLLQQGASPNAATTSGYTPLHLSAREGHEDVAAFLLDHGASLSITTKKGFTPLHVAAKYGKLEVASLLLQKSASPDAAGKSGLTPLHVAAHYDNQKVALLLLDQGASPHAAAKNGYTPLHIAAKKNQMDIATSLLEYGADANAVTRQGIASVHLAAQEGHVDMVSLLLSRNANVNLSNKSGLTPLHLAAQEDRVNVAEVLVNQGAHVDAQTKMGYTPLHVGCHYGNIKIVNFLLQHSAKVNAKTKNGYTPLHQAAQQGHTHIINVLLQNNASPNELTVNGNTALAIARRLGYISVVDTLKVVTEEIMTTTTITEKHKMNVPETMNEVLDMSDDEGEDAITGDTDKYLGPQDLKELGDDSLPAEGYVGFSLGARSASPKISSDRSYTLNRSSYARDSMMIEELLVPSKEQHLPFTREFDSDSLRHYSWAADTLDNVNLVSSPVHSGFLVSFMVDARGGSMRGSRHHGMRIIIPPRKCTAPTRITCRLVKRHKLANPPPMVEGEGLASRLVEMGPAGAQFLGPVIVEIPHFGSMRGKERELIVLRSENGETWKEHQFDSKNEDLSELLNGMDEELDSPEELGTKRICRIITKDFPQYFAVVSRIKQESNQIGPEGGILSSTTVPLVQASFPEGALTKRIRVGLQAQPVPEETVKKILGNKATFSPIVTVEPRRRKFHKPITMTIPVPPPSGEGVSNGYKGDTTPSLRLLCSITGGTSPAQWEDITGTTPLTFIKDCVSFTTNVSARFWLADCHQVLETVGLASQLYRELICVPYMAKFVVFAKTNDPVESSLRCFCMTDDRVDKTLEQQENFEEVARSKDIEVLEGKPIYVDCYGNLAPLTKGGQQLVFNFYSFKENRLPFSIKVRDTSQEPCGRLSFLKEPKTTKGLPQTAVCNLNITLPAHKKAEKADRRQSFTSLALRPQSPCERTDIRMAIVADHLGLSWTELARELNFSVDEINQIRVENPNSLISQSFMLLKKWVTRDGKNATTDALTSVLTKINRIDIVTLLEGPIFDYGNISGTRSFADENNVFHDPVDGWQNETPSGSLESPAQARRITGGLLDRLDDSSDQVRDPITSYLTGEAGKFEANGNHAEVIPEAKAKAYFPESQNDIGKQSIKENLKPKTHGCGRAEEPVSPLTAYQKSLEETSKLVIEDAPKPCVPVGMKKMTRTPADGKARLNLQEEEGSARSEPKQVKSPGEAFTRMTACCYKDLRHSESDSSSEEERRVTTRVIRRRVIIKGEEAKTIPGESVTEEQFTDEEGNLITRKITRKVIRRIGPQERKQDDVQGEGYKVKTKKEIRNVEKKAH
notes: An immunoreactive band of about 190 kDa is reported; also called purified ankG; recombinant ankG protein
Consider B1, for which the binding result in test [1] and in test [2] was “no binding (tested: ankG 0-2.5 µg/ml)” each time.
